Entries after “also recorded” stand apart in the source; their conditions may differ. Bridges are numbered along the chain shown (N, C = ends). Where no end group is shown, it is not given here.
Biological target: T1, amilorid-sensitive Sodium Ion Channel (ENaC) (Homo sapiens, UniProt P37088)
T1 construct: Macroscopic Sodium Ion Currents were derived from human lung epithelian cells A549; endogenous in cells; host or cells: A549 human lung epithelial cells
T1 sequence (P37088 1-669): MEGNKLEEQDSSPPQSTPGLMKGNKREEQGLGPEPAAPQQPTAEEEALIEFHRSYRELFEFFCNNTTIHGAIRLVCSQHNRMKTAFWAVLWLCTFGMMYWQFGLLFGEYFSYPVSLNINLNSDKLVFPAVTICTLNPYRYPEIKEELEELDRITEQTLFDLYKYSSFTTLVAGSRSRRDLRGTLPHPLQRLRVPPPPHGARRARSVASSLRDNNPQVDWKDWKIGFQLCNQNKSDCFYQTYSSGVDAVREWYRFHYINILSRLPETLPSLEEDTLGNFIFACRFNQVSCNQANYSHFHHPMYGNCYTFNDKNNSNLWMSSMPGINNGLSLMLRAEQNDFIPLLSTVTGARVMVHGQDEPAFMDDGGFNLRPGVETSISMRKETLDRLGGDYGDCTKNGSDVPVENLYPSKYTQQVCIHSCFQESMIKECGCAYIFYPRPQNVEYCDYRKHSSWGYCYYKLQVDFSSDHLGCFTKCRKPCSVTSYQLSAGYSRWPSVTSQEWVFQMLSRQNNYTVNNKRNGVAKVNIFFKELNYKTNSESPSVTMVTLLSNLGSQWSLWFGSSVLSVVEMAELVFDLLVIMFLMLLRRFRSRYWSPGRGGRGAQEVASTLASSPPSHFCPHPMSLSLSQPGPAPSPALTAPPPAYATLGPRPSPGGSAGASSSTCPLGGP
T1 sequence (P51168 1-640 partner): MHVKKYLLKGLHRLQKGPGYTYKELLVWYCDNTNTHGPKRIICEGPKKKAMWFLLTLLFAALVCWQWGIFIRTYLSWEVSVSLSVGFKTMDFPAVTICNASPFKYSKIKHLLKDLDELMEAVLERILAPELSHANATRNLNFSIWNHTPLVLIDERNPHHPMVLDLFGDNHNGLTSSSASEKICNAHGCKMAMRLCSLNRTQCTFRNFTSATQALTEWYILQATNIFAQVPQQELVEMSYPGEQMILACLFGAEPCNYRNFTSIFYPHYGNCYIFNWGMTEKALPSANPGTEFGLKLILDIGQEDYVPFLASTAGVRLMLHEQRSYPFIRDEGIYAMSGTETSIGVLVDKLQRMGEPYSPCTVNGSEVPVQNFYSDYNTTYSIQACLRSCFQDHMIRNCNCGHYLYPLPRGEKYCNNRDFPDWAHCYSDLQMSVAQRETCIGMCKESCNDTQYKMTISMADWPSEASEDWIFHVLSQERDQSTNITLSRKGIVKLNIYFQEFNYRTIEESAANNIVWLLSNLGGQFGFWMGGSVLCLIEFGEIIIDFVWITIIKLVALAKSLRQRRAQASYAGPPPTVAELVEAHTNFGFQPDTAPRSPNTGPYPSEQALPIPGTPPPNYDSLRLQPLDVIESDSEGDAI
T1 sequence (P51170 1-649 partner): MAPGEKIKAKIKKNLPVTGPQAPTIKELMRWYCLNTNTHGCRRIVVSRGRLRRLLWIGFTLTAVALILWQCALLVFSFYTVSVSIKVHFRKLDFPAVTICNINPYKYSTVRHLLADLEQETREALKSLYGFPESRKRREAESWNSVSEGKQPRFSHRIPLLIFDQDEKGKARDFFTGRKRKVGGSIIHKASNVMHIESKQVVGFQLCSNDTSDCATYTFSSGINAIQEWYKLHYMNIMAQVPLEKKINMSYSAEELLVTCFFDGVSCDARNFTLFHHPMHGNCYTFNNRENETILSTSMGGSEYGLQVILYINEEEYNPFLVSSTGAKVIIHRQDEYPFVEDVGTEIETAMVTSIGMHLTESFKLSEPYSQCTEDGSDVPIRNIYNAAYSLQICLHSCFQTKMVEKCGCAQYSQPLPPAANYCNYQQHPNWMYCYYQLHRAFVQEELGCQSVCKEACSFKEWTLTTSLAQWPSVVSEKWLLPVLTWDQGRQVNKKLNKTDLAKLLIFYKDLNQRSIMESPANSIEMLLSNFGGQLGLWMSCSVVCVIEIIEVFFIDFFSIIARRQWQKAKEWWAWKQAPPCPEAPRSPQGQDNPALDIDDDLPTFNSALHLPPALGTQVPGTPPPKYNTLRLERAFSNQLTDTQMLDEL
Test: Patch-clamp whole cell, amilorid-sensitive sodium ion current in A549 cells
Format: cell-based
Procedure: Macroscopic Sodium Ion Currents were derived from human lung epithelian cells A549 in the “whole cell” configuration by means of the “Patch-clamp” technique (Hamill et al, Pflugers Arch. 1981, 391(2):85-100, 1981). For the currents in the “whole cell” configuration the following bath- and electrode solutions were used:
Bath solution: 135 mM sodium methansulfonate, 10 mM NaCl, 2.7 mM KCl, 1.8 mM CaCl2, 2 mM MgCl2, 5.5 mM glucose, and 10 mM HEPES, pH 7.4.
Electrode solution: 120 mM potassium methansulfonate, 15 mM KCl, 6 mM NaCl, 1 mM Mg2ATP, 2 mM Na3ATP, 10 mM HEPES, and 0.5 mM EGTA (pH 7.2).
Cover glasses with thereon cultivated cells were transferred into a 1 ml containing trial bath, fixed onto the microscope table (Axiovert 100, 400-fold enlargement) and the cells were superfunded with the above described bath solution. Subsequent from an appropriate cell (sticking on the cover glass) the current was deduced. […] On receipt of a “Gigaohm-Seal” a defined membrane hold potential was created via a preamplifier (CV-4 Headstag, Axon Instruments) and amplifier (Axopatch 1D, Axon Instr.) and the current which thereby flows through the ion channels is measured.
That protocol was done before (control) and after addition of the cyclic proteins. The thus obtained currents were recorded and analyzed by means of the program PCLAMP 6.0. […]

For “Cyclo(CGQREAPAGAAAKPWYC) (disulfide 1-17) [SEQ ID NO: 7, reference compound]”, the “biological activity (in words)” value (amilorid-sensitive sodium current) was “biologically inactive; also recorded: not active” and the “EC50 (activity on cellular amilorid-sensitive sodium ion current)” value (whole cell patch clamp) was “no activity”.
